According to patent publication US20210348144 (published 2021):

B1: crRNA-2 HPRT 38094-S-23 ; HPRT 38094-S protospacer (DNA equivalent of crRNA-2 spacer) (ssRNA ; dsDNA)
RNA: UAAUUUCUACUAAGUGUAGAUAUAGUCUUUCCUUGGGUGUGUUA
DNA 1: ATAGTCTTTCCTTGGGTGTGTTA
DNA 2: TAACACACCCAAGGAAAGACTAT
B2: crRNA-4 HPRT 38486-S-23 ; HPRT 38486-S protospacer (DNA equivalent of crRNA-4 spacer) (ssRNA ; dsDNA)
RNA: UAAUUUCUACUAAGUGUAGAUUUGUAGGAUAUGCCCUUGACUAU
DNA 1: TTGTAGGATATGCCCTTGACTAT
DNA 2: ATAGTCAAGGGCATATCCTACAA

What was measured:
LbCas12a K1121D [1] = target: T1, LbCas12a K1121D (Lachnospiraceae bacterium ND2006); assay: cell_activity; WT 7.70; 50 nM RNP, HEK293, T7EI 48 h; PAM of site not stated
LbCas12a G146R [2] = target: T2, LbCas12a G146R (Lachnospiraceae bacterium ND2006); assay: as above
[3] = target: T3, LbCas12a G146R/R182V/E795Q (RVQ) (Lachnospiraceae bacterium ND2006); assay: as above
LbCas12a E795Q [4] = target: T4, LbCas12a E795Q (Lachnospiraceae bacterium ND2006); assay: as above
LbCas12a R182V [5] = target: T5, LbCas12a R182V (Lachnospiraceae bacterium ND2006); assay: as above
LbCas12a S1020E [6] = target: T6, LbCas12a S1020E (Lachnospiraceae bacterium ND2006); assay: as above
LbCas12a T152K [7] = target: T7, LbCas12a T152K (Lachnospiraceae bacterium ND2006); assay: as above
LbCas12a W890A [8] = target: T8, LbCas12a W890A (Lachnospiraceae bacterium ND2006); assay: as above
LbCas12a E981V [9] = target: T9, LbCas12a E981V (Lachnospiraceae bacterium ND2006); assay: as above
LbCas12a P799V [10] = target: T10, LbCas12a P799V (Lachnospiraceae bacterium ND2006); assay: as above
LbCas12a K1121D [11] = target: T1, LbCas12a K1121D; assay: cell_activity; WT 15.77; 50 nM RNP, HEK293, T7EI 48 h; PAM of site not stated
LbCas12a G146R [12] = target: T2, LbCas12a G146R; assay: as above
[13] = target: T3, LbCas12a G146R/R182V/E795Q (RVQ); assay: as above
LbCas12a E795Q [14] = target: T4, LbCas12a E795Q; assay: as above
LbCas12a R182V [15] = target: T5, LbCas12a R182V; assay: as above
LbCas12a S1020E [16] = target: T6, LbCas12a S1020E; assay: as above
LbCas12a T152K [17] = target: T7, LbCas12a T152K; assay: as above
LbCas12a W890A [18] = target: T8, LbCas12a W890A; assay: as above
LbCas12a E981V [19] = target: T9, LbCas12a E981V; assay: as above
LbCas12a P799V [20] = target: T10, LbCas12a P799V; assay: as above

| Binder | activity (LbCas12a K1121D [1]) [% editing] | activity (LbCas12a G146R [2]) [% editing] | activity [3] [% editing] | activity (LbCas12a E795Q [4]) [% editing] | activity (LbCas12a R182V [5]) [% editing] | activity (LbCas12a S1020E [6]) [% editing] | activity (LbCas12a T152K [7]) [% editing] | activity (LbCas12a W890A [8]) [% editing] | activity (LbCas12a E981V [9]) [% editing] | activity (LbCas12a P799V [10]) [% editing] | activity (LbCas12a K1121D [11]) [% editing] | activity (LbCas12a G146R [12]) [% editing] | activity [13] [% editing] | activity (LbCas12a E795Q [14]) [% editing] | activity (LbCas12a R182V [15]) [% editing] | activity (LbCas12a S1020E [16]) [% editing] | activity (LbCas12a T152K [17]) [% editing] | activity (LbCas12a W890A [18]) [% editing] | activity (LbCas12a E981V [19]) [% editing] | activity (LbCas12a P799V [20]) [% editing] |
| --- | --- | --- | --- | --- | --- | --- | --- | --- | --- | --- | --- | --- | --- | --- | --- | --- | --- | --- | --- | --- |
| B1 | 3.65 | 16.2 | 32.8 | 9.77 | 10.4 | 4.27 | 20.9 | 3.8 | 13.8 | 16.7 | – | – | – | – | – | – | – | – | – | – |
| B2 | – | – | – | – | – | – | – | – | – | – | 6.87 | 32.2 | 51.5 | 26.8 | 29.1 | 7.6 | 18.6 | 4.27 | 26.4 | 30.7 |
